Assay results reported in patent US9687529B2, “Method of controlling coagulation” (Duke University, priority 2011, dated 2017).
Several values for one entry are separate records, joined by “and”; a condition that tells them apart may be missing. Equal entries are not always repeated. Where two headings read alike, the source gives them in different places. Strand notation (5' to 3'): a small letter for the sugar, then the base; units joined by * are phosphorothioate-linked, units joined directly phosphodiester-linked; [ ] holds rarer units or linkages, { } end groups; capitals alone tell only the bases. r = 2'-OH (RNA); f = 2'-fluoro

Tests used:
clot formation in plasma = details: cited from earlier work
thrombin = thrombin (Homo sapiens, UniProt P00734); details: cited from earlier work
[1] = cited from earlier work
[2] = patient with renal failure; cited from earlier work
[3] = system: clot formation in whole blood; assay: Antidote reversal TEG of 11F7T+R9D-14T anticoagulation; type: cell-based, human; details: blood anticoagulated 1 hour with 11F7T 0.5 μM+R9D-14T 5 μM; protamine 22 μM (4-fold molar excess); average
Protocol: For the antidote reversal TEGs, whole blood was anticoagulated with a combination of the FXa (0.5 μM) and prothrombin (5 μM) aptamers for 1 hour as described, antidote (10 μL) was added, and the assay was continued until a stable clot was formed. For complete antidote reversal at one hour a 4-fold molar excess of protamine (22 μM) was added, 50 μg of CDP was added, or a 2-fold molar excess of the R9D-14T oligonucleotide (10 μM) in combination with a 3-fold molar excess of the 11F7T antidote oligonucleotide (1.5 μM) was added.
Whole blood was anticoagulated with 11F7T+R9D-14T at a dose that prevents clot formation for greater than three hours, and various antidotes were subsequently added after one hour to assess anticoagulation reversal and resulting clot formation. Both protamine and the β-cyclodextrin containing polymer (CDP) were tested for their ability to function as a universal antidote by simultaneously reversing both aptamers in combination (Oney et al, Nat Med 15:1224-8 (2009)). […] Thus, although the 11F7T+R9D-14T aptamer combination is an extremely potent anticoagulant cocktail that can mimic UFH anticoagulation in an ex vivo oxygenator circuit, the aptamer combination can be rapidly reversed with either a universal antidote or a combination of oligonucleotide antidotes.

[4] = system: clot formation in whole human blood; assay: TEG of dogbone aptamer in whole human blood; type: cell-based
Protocol: Activity of dogbone 4 was tested using thromboelastography (TEG), an assay using whole human blood.

[5] = system: thrombin generation in normal human platelet poor plasma; assay: Calibrated automated thrombography (CAT); type: biochemical; details: TF 5 ρM
Protocol: Normal human platelet poor plasma (80 μL) was mixed with aptamer(s) (10 μL) in an Immunolon 2HB U Bottom Mictrotiter 96-well plate (Thermo Labsystems, Franklin, Mass.) and incubated at 37° C. for 5 min. PPP reagent (Diagnostica Stago, Parsippany, N.J.) (either 1 ρM or 5 ρM TF, 20 μL, Diagnostica Stago) was added, and the mixture was incubated at 37° C. for another 5 min. FluCa (Diagnostica Stago) (10 μL) was added to initiate the assay and thrombin generation was measured for 60 minutes at 37° C. with a Fluoroskan Ascent fluorometer (ThermoLabsystem, Helsinki, Finland) according to the manufacturer's instructions. The amount of thrombin generated was quantified by comparison to an assay with thrombin calibrator reagent (Diagnostica Stago) that has a known activity toward the fluorogenic substrate. The lag time, peak amount of thrombin generated, and endogenous thrombin potential (ETP) were automatically calculated by the Thrombinoscope software (Thrombinoscope BV, the Netherlands).
Thrombin is the final protease formed in the coagulation cascade, and the rate of thrombin generation and the total amount of thrombin generated is associated with blood clot formation and stability (Wolberg, Blood Rev 21:131-42 (2007)). To gain more information about the impact of aptamer anticoagulation on the kinetics of thrombin generation, the individual aptamers were analyzed with calibrated automated thrombography (CAT). The CAT assay measures real-time thrombin generation in plasma by monitoring cleavage of a thrombin-specific fluorogenic substrate in response to TF stimulation (Heruker et al, Pathophysiol Haemost Thromb 33: 4-15 (2003)). The parameters of thrombin generation analyzed include: the lag time (time until thrombin generation begins), the peak (the maximal amount of thrombin generated at a given time) and the endogenous thrombin potential (ETP, the total amount of thrombin generated). Similar to the aPTT and PT clotting assays, all of the individual aptamers dose-dependently impacted the various parameters of thrombin generation (FIG. 21 and Table 1). […] 9.3T minorly impacted all parameters of thrombin generation with the high TF reagent; however, because high concentrations of TF may bypass FIX activity by directly generating FXa, the manufacturer recommends low concentrations of TF for analyzing FIX deficient (i.e, Hemophilia B) plasma in the CAT.

[6] = system: clot formation in normal human platelet poor plasma; assay: Prothrombin time (PT) plasma clotting assay; type: biochemical
Protocol: The activated partial thromboplastin time (aPTT) and prothrombin time (PT) assays were performed on a model ST4 mechanical coagulometer (Diagnostica Stago, Parsippany, N.J.) as previously described (Bompiani et al, J Thromb Haemost 10:870-80 (2012)). For the aPTT, 50 μL of normal human platelet poor plasma (PPP) was incubated with 50 μL TriniClot aPTT S (Trinity BioTech, Bray, Co Wicklow, Ireland) at 37° C. for 5 min. Aptamer(s) (5 μL) was added, and the mixture was incubated at 37° C. for another 5 min, and CaCl2 (50 μL) was added to initiate the assay. For the PT, 50 μL of normal human PPP was incubated with 5 μL of aptamer(s) at 37° C. for 5 min. TriniClot PT Excel reagent (Trinity BioTech, Bray, Co Wicklow, Ireland) (100 μL) was added to initiate the reaction. Assays with a combination of two aptamers contain an equimolar concentration of each individual aptamer, and the data shown are the total RNA concentration.
To compare the anticoagulant effect of these four aptamers, dose-response titrations were performed in several clinical plasma-based clotting assays. The activated partial thromboplastin time (aPTT) and prothrombin time (PT) are plasma clotting assays that are clinically used to probe for abnormalities in the intrinsic and extrinsic coagulation pathways, respectively (Van Cott et al, editors. Jacobs & DeMott laboratory test handbook. 5th ed. Hudson Ohio: Lexi-Comp. p. 327-58 (2001)). These relatively simple assays measure the time until clot formation in platelet poor plasma (PPP) in response to either robust tissue factor (TF), or contact stimulation via negatively charged surfaces (i.e., silica, kaolin, celite). […] At high concentrations, the prothrombin aptamer (R9D-14T) was the most robust anticoagulant and inhibited greater than 96% of prothrombin activity in the aPTT and PT. At 4 μM, R9D-14T increased the aPTT clotting time approximately 18-fold and the PT clotting time greater than 80-fold (exceeded the assay limit of 999 sec). […] At the same dose, the FIXa aptamer (9.3T) inhibited greater than 99% of FIX activity and increased the aPTT clotting time approximately 5.5-fold, while the FVIIa aptamer (7S-1) increased the PT clotting time 3-fold and inhibited greater than 99% of FVII activity (FIGS. 20A and 20B).

[7] = system: clot formation in whole blood; assay: TEG of whole blood, coagulation triggered by tissue factor (Example I); type: cell-based; details: TF; FVIIa aptamer 0.5, FIXa aptamer 1.0, FXa aptamer 1.0 micromolar
Protocol: TEG is a waveform generated from serial measurements of the torque transmitted from a small oscillating cup to the tip of a metal pin inserted into the cup by a 360 microliter sample of blood or plasma added to the cup.
A 360 microliter blood sample has been added to the cup. For 180 minutes after the sample is added, the cup oscillates alternatively clockwise and counterclockwise through an arc of 4° 45′ at a frequency of one oscillation cycle—i. e., one clockwise rotation and one counterclockwise rotation—every 10 seconds. The lower end of the pin is immersed by the sample; the upper end is suspended from a torsion wire. The TEG analyzer records a single measurement of rotation-induced torque after each clockwise rotation and after each counterclockwise rotation of the cup. “The torque of the rotating cup is transmitted to the immersed pin only after fibrin-platelet bonding has linked the cup and [the] pin together. The strength of these fibrin-platelet bonds affects the magnitude of the pin motion, such that strong clots move the pin directly in phase with the cup motion. Thus, the magnitude of the output is directly related to the strength of the formed clot . . . . [If] the clot retracts or lyses, these bonds are broken and the transfer of cup motion is diminished. The rotation movement of the pin is converted by a mechanical-electrical transducer to an electrical signal which can be monitored by a computer” (TEG 5000 User Manual, pp 3-4, 1999-2007)). The computer converts the series of electrical signals into the TEG tracing.

[8] = system: clot formation in whole blood; assay: Thromboelastography (TEG), whole blood stimulated with tissue factor; type: cell-based, human
Protocol: Blood was drawn from healthy, consented volunteers under a Duke University Institutional Review Board approved protocol and anticoagulated with 3.2% sodium citrate. Whole blood (320 μL) was mixed with anticoagulant (heparin or aptamers) (10 μL) and kaolin (Haemonetics, Niles, Ill.) (10 μL) or CAT PRP reagent (Diagnostica Stago, 0.33 ρM TF final) (10 μL) was added to stimulate clotting. CaCl2 (20 μL) was immediately added to overcome the citrate, the mixture was added to a plain disposable plastic TEG cup (Haemonetics), and the assay was run according to the manufacturer's instructions. Clot formation at 37° C. was measured with a Thromboelastograph Analyzer (Haemonetics, Niles, Ill.) until a stable clot was formed (i.e., a maximum amplitude was reached) or for three hours with the aptamer combinations. The time lag time, α-angle, and maximum amplitude were automatically calculated by the TEG® Analytical Software version 4.2.3 (Haemonetics).
Because kaolin stimulates blood via the intrinsic pathway, it is unlikely that 7S-1 (FVIIa aptamer) would impair clot formation with this type of stimulation; thus, this aptamer was tested in a modified TEG with TF stimulation. CAT platelet rich plasma (PRP) reagent (TF) was diluted to a final concentration of 0.33 ρM TF to stimulate clotting.

[9] = concentration ten-fold higher than recommended for CPB

Molecule: CC1CNc2c(cccc2S(=O)(=O)N[C@@H](CCCNC(=N)N)C(=O)N2CC[C@@H](C)C[C@@H]2C(=O)O)C1 (some centres unmarked) [argatroban]
- clot propagation and strength (in words) (clot formation in plasma; [9]): did not significantly reduce clot propagation and strength

Molecule: FPRPGGGGNGDFEEIPEEYL [bivalirudin]
- clot propagation and strength (in words) (clot formation in plasma; [9]): did not significantly reduce clot propagation and strength
- Kd (thrombin): ~1.9 nM
- in vivo half-life [1]: about 30 minutes

Molecule: lepirudin
- clot propagation and strength (in words) (clot formation in plasma; 10 micrograms/mL, approximately 1.4 micromolar): significantly reduce clot propagation and strength
- time the drug can remain in the circulation [2]: > 120 h

Molecule: protamine
- time to stable clot formation after antidote [3]: ≤ 15 min

B1: FX/FII dogbone 4: FX/FII dogbone aptamer of reduced size, SEQ ID NO: 22 (nucleic acid)
chain: GUCGAUCACACAGUUCAAACGUAAUAAGCCAAUGUACGAGGCAGACGACAAAGCCCCAGCGAGAUAAUACUUGGCCCCGCU
modifications: listed as RNA, chemistry not given here
- activity compared to the free combination of aptamers (in words) [4]: comparable or better activity than the free combination of aptamers
- activity compared to the free combination of aptamers (in words) ([4]; listed as Dogbone Aptamer 4): inhibits clot formation as well as the combination of individual Factor II (R9D-14T) and X (11f7T) aptamers

B2: 7S-1: FVIIa aptamer, 2'-fluoropyrimidine modified RNA, SEQ ID NO: 5 (nucleic acid)
chain: rGrGrGrArGrGrAfCrGrAfUrGfCrGrGrAfCfUfCfCfUfCfCrArArGfCrGrAfCfCrArAfCrAfUfCrGrGfUfCfCfCrGfUfUfUfCrArGrAfUfCrArAfCrArGrAfCrGrAfCfUfCrGfCfUrGrArGrGrAfUfCfCrGrArGrA
- ETP ([5]; RNA 1.25 nM): 1657.33 ± 42.72 nM·min
- Lag-time ([5]; RNA 1.25 nM): 1.67 ± 0.19 min
- Peak ([5]; RNA 1.25 nM): 314.56 ± 14.17 nM
- TTP ([5]; RNA 1.25 nM): 4.28 ± 0.20 min
- ETP ([5]; RNA 2.5 nM): 1603.50 ± 28.00 nM·min
- Lag-time ([5]; RNA 2.5 nM): 2.00 ± 0.17 min
- Peak ([5]; RNA 2.5 nM): 274.39 ± 29.71 nM
- TTP ([5]; RNA 2.5 nM): 5.29 ± 0.55 min
- ETP ([5]; RNA 5 nM): 1656.20 ± 96.89 nM·min
- Lag-time ([5]; RNA 5 nM): 3.17 ± 0.19 min
- Peak ([5]; RNA 5 nM): 238.68 ± 31.03 nM
- TTP ([5]; RNA 5 nM): 7.34 ± 0.55 min
- ETP ([5]; RNA 10 nM): 1339.50 ± 21.15 nM·min
- Lag-time ([5]; RNA 10 nM): 4.51 ± 0.42 min
- Peak ([5]; RNA 10 nM): 130.54 ± 14.06 nM
- TTP ([5]; RNA 10 nM): 11.01 ± 0.79 min
- ETP ([5]; RNA 30 nM): 1523.50 ± 160.63 nM·min
- Lag-time ([5]; RNA 30 nM): 6.01 ± 0.44 min
- Peak ([5]; RNA 30 nM): 199.25 ± 41.13 nM
- TTP ([5]; RNA 30 nM): 10.80 ± 1.03 min
- increase of PT clotting time ([6]; 4 μM aptamer): 3 fold
- FVII activity inhibited ([6]; PT, 4 μM): greater than 99%
- clot formation (in words) [7]: none of those aptamers prevented clot formation
- Angle ([8]; RNA 0.12 μM): 65.2 ± 5.2 deg
- Lag-time ([8]; RNA 0.12 μM): 4.5 ± 0.6 min
- Max. Amplitude ([8]; RNA 0.12 μM): 63.0 ± 3.7 mm
- Angle ([8]; RNA 0.25 μM): 62.4 ± 3.7 deg
- Lag-time ([8]; RNA 0.25 μM): 5.1 ± 1.2 min
- Max. Amplitude ([8]; RNA 0.25 μM): 64.0 ± 2.8 mm
- Angle ([8]; RNA 0.50 μM): 61.9 deg and 61.9 ± 3.3 deg
- Lag-time ([8]; RNA 0.50 μM): 6.6 min and 6.6 ± 0.8 min
- Max. Amplitude ([8]; RNA 0.50 μM): 63.1 mm and 63.1 ± 2.0 mm
